Assay results published in the supplement of paper PMC6755084.

B1: F1*; the commonest letter at each place (parent)
chain: GAGACCGCAACTGAAAAGTTGTTATCACTTGTCGTAAGACACTTTGGATGGGTTGAAGTTCTGCACGTAGAAGCAAAAGGC

Variants of: B1
Test: fraction ligated after 30 min (ligated reads / total reads); higher = more ligase activity
Conditions: with F1*sub RNA substrate (template-directed ligation), 42 °C
How it was run: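 Oligo-pool templates of ligase ribozyme variants were PCR-amplified, T7-transcribed and gel-purified. Ligated and unligated bands were gel-separated, reverse transcribed with barcoded primers, and MiSeq-sequenced; core bases were filtered at quality ≥20. Fraction ligated per variant was ligated reads over total reads.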

| Variant | fraction ligated |
| --- | --- |
| GAGACCGCAACTGAAAAGTTGTTATCACTTGTCGTAAGACACTGTGGATGGGTTGTAGTTCTGCACGTAGAAGCAAAAGGC | 0.809 |
| GAGACCGCAACTGAAAAGTTGTTATCACTTGTCGTAAGACACTGTGGATGGGTTGACGTTCTGCACGTAGAAGCAAAAGGC | 0.816 |
| GAGACCGCAACTGAAAAGTTGTTATCACTTGTCGTAAGACACTGTGGATGGGTTGAGGTTCTGCACGTAGAAGCAAAAGGC | 0.791 |
| GAGACCGCAACTGAAAAGTTGTTATCACTTGTCGTAAGACACTGTGGATGGGTTGATGTTCTGCACGTAGAAGCAAAAGGC | 0.857 |
| GAGACCGCAACTGAAAAGTTGTTATCACTTGTCGTAAGACACTGTAGATGGGTTGAAGTTCTGCACGTAGAAGCAAAAGGC | 0.818 |
| GAGACCGCAACTGAAAAGTTGTTATCACTTGTCGTAAGACACTGTCGATGGGTTGAAGTTCTGCACGTAGAAGCAAAAGGC | 0.806 |
| GAGACCGCAACTGAAAAGTTGTTATCACTTGTCGTAAGACACTGTTGATGGGTTGAAGTTCTGCACGTAGAAGCAAAAGGC | 0.805 |
| GAGACCGCAACTGAAAAGTTGTTATCACTTGTCGTAAGACACTGTGAATGGGTTGAAGTTCTGCACGTAGAAGCAAAAGGC | 0.305 |
| GAGACCGCAACTGAAAAGTTGTTATCACTTGTCGTAAGACACTGTGCATGGGTTGAAGTTCTGCACGTAGAAGCAAAAGGC | 0.0306 |
| GAGACCGCAACTGAAAAGTTGTTATCACTTGTCGTAAGACACTGTGTATGGGTTGAAGTTCTGCACGTAGAAGCAAAAGGC | 0.0521 |
| GAGACCGCAACTGAAAAGTTGTTATCACTTGTCGTAAGACACTGTGGATAGGTTGAAGTTCTGCACGTAGAAGCAAAAGGC | 0.132 |
| GAGACCGCAACTGAAAAGTTGTTATCACTTGTCGTAAGACACTGTGGATCGGTTGAAGTTCTGCACGTAGAAGCAAAAGGC | 0.0717 |
| GAGACCGCAACTGAAAAGTTGTTATCACTTGTCGTAAGACACTGTGGATTGGTTGAAGTTCTGCACGTAGAAGCAAAAGGC | 0.344 |
| GAGACCGCAACTGAAAAGTTGTTATCACTTGTCGTAAGACACTGTGGATGGGTTAAAGTTCTGCACGTAGAAGCAAAAGGC | 0.842 |
| GAGACCGCAACTGAAAAGTTGTTATCACTTGTCGTAAGACACTGTGGATGGGTTCAAGTTCTGCACGTAGAAGCAAAAGGC | 0.729 |
| GAGACCGCAACTGAAAAGTTGTTATCACTTGTCGTAAGACACTGTGGATGGGTTTAAGTTCTGCACGTAGAAGCAAAAGGC | 0.795 |
| GAGACCGCAACTGAAAAGTTGTTATCACTTGTCGTAAGACACTGAGGATGGGTTGAAGTTCTGCACGTAGAAGCAAAAGGC | 0.769 |
| GAGACCGCAACTGAAAAGTTGTTATCACTTGTCGTAAGACACTGCGGATGGGTTGAAGTTCTGCACGTAGAAGCAAAAGGC | 0.797 |
| GAGACCGCAACTGAAAAGTTGTTATCACTTGTCGTAAGACACTGGGGATGGGTTGAAGTTCTGCACGTAGAAGCAAAAGGC | 0.35 |
| GAGACCGCAACTGAAAAGTTGTTATCACTTGTCGTAAGACACTGTGGAAGGGTTGAAGTTCTGCACGTAGAAGCAAAAGGC | 0.584 |
| GAGACCGCAACTGAAAAGTTGTTATCACTTGTCGTAAGACACTGTGGACGGGTTGAAGTTCTGCACGTAGAAGCAAAAGGC | 0.183 |
| GAGACCGCAACTGAAAAGTTGTTATCACTTGTCGTAAGACACTGTGGAGGGGTTGAAGTTCTGCACGTAGAAGCAAAAGGC | 0.714 |
| GAGACCGCAACTGAAAAGTTGTTATCACTTGTCGTAAGACACTTAGGATGGGTTGAAGTTCTGCACGTAGAAGCAAAAGGC | 0.787 |

| Variant | fraction ligated |
| --- | --- |
| GAGACCGCAACTGAAAAGTTGTTATCACTTGTCGTAAGACACTTAGGCTGGGTTGAAGTTCTGCACGTAGAAGCAAAAGGC | 0.23 |
| GAGACCGCAACTGAAAAGTTGTTATCACTTGTCGTAAGACACTTAGGGTGGGTTGAAGTTCTGCACGTAGAAGCAAAAGGC | 0.261 |
| GAGACCGCAACTGAAAAGTTGTTATCACTTGTCGTAAGACACTTAGGTTGGGTTGAAGTTCTGCACGTAGAAGCAAAAGGC | 0.0749 |
| GAGACCGCAACTGAAAAGTTGTTATCACTTGTCGTAAGACACTTAGGATGGGTTGCAGTTCTGCACGTAGAAGCAAAAGGC | 0.782 |
| GAGACCGCAACTGAAAAGTTGTTATCACTTGTCGTAAGACACTTAGGATGGGTTGGAGTTCTGCACGTAGAAGCAAAAGGC | 0.768 |
| GAGACCGCAACTGAAAAGTTGTTATCACTTGTCGTAAGACACTTAGGATGGGTTGTAGTTCTGCACGTAGAAGCAAAAGGC | 0.793 |
| GAGACCGCAACTGAAAAGTTGTTATCACTTGTCGTAAGACACTTAGGATGGGTTGACGTTCTGCACGTAGAAGCAAAAGGC | 0.773 |
| GAGACCGCAACTGAAAAGTTGTTATCACTTGTCGTAAGACACTTAGGATGGGTTGAGGTTCTGCACGTAGAAGCAAAAGGC | 0.752 |
| GAGACCGCAACTGAAAAGTTGTTATCACTTGTCGTAAGACACTTAGGATGGGTTGATGTTCTGCACGTAGAAGCAAAAGGC | 0.794 |
| GAGACCGCAACTGAAAAGTTGTTATCACTTGTCGTAAGACACTTAAGATGGGTTGAAGTTCTGCACGTAGAAGCAAAAGGC | 0.178 |
| GAGACCGCAACTGAAAAGTTGTTATCACTTGTCGTAAGACACTTACGATGGGTTGAAGTTCTGCACGTAGAAGCAAAAGGC | 0.0374 |
| GAGACCGCAACTGAAAAGTTGTTATCACTTGTCGTAAGACACTTATGATGGGTTGAAGTTCTGCACGTAGAAGCAAAAGGC | 0.403 |
| GAGACCGCAACTGAAAAGTTGTTATCACTTGTCGTAAGACACTTAGAATGGGTTGAAGTTCTGCACGTAGAAGCAAAAGGC | 0.478 |
| GAGACCGCAACTGAAAAGTTGTTATCACTTGTCGTAAGACACTTAGCATGGGTTGAAGTTCTGCACGTAGAAGCAAAAGGC | 0.217 |
| GAGACCGCAACTGAAAAGTTGTTATCACTTGTCGTAAGACACTTAGTATGGGTTGAAGTTCTGCACGTAGAAGCAAAAGGC | 0.205 |
| GAGACCGCAACTGAAAAGTTGTTATCACTTGTCGTAAGACACTTAGGATAGGTTGAAGTTCTGCACGTAGAAGCAAAAGGC | 0.0303 |
| GAGACCGCAACTGAAAAGTTGTTATCACTTGTCGTAAGACACTTAGGATCGGTTGAAGTTCTGCACGTAGAAGCAAAAGGC | 0.0158 |
| GAGACCGCAACTGAAAAGTTGTTATCACTTGTCGTAAGACACTTAGGATTGGTTGAAGTTCTGCACGTAGAAGCAAAAGGC | 0.0542 |
| GAGACCGCAACTGAAAAGTTGTTATCACTTGTCGTAAGACACTTAGGATGGGTTAAAGTTCTGCACGTAGAAGCAAAAGGC | 0.274 |
| GAGACCGCAACTGAAAAGTTGTTATCACTTGTCGTAAGACACTTAGGATGGGTTCAAGTTCTGCACGTAGAAGCAAAAGGC | 0.067 |
| GAGACCGCAACTGAAAAGTTGTTATCACTTGTCGTAAGACACTTAGGATGGGTTTAAGTTCTGCACGTAGAAGCAAAAGGC | 0.144 |
| GAGACCGCAACTGAAAAGTTGTTATCACTTGTCGTAAGACACTTAGGAAGGGTTGAAGTTCTGCACGTAGAAGCAAAAGGC | 0.0341 |
| GAGACCGCAACTGAAAAGTTGTTATCACTTGTCGTAAGACACTTAGGACGGGTTGAAGTTCTGCACGTAGAAGCAAAAGGC | 0.0557 |

| Variant | fraction ligated |
| --- | --- |
| GAGACCGCAACTGAAAAGTTGTTATCACTTGTCGTAAGACACTTAGGAGGGGTTGAAGTTCTGCACGTAGAAGCAAAAGGC | 0.0993 |
| GAGACCGCAACTGAAAAGTTGTTATCACTTGTCGTAAGACACTTCGGATGGGTTGAAGTTCTGCACGTAGAAGCAAAAGGC | 0.74 |
| GAGACCGCAACTGAAAAGTTGTTATCACTTGTCGTAAGACACTTCGGCTGGGTTGAAGTTCTGCACGTAGAAGCAAAAGGC | 0.112 |
| GAGACCGCAACTGAAAAGTTGTTATCACTTGTCGTAAGACACTTCGGGTGGGTTGAAGTTCTGCACGTAGAAGCAAAAGGC | 0.0929 |
| GAGACCGCAACTGAAAAGTTGTTATCACTTGTCGTAAGACACTTCGGTTGGGTTGAAGTTCTGCACGTAGAAGCAAAAGGC | 0.00623 |
| GAGACCGCAACTGAAAAGTTGTTATCACTTGTCGTAAGACACTTCGGATGGGTTGCAGTTCTGCACGTAGAAGCAAAAGGC | 0.747 |
| GAGACCGCAACTGAAAAGTTGTTATCACTTGTCGTAAGACACTTCGGATGGGTTGGAGTTCTGCACGTAGAAGCAAAAGGC | 0.569 |
| GAGACCGCAACTGAAAAGTTGTTATCACTTGTCGTAAGACACTTCGGATGGGTTGTAGTTCTGCACGTAGAAGCAAAAGGC | 0.473 |
| GAGACCGCAACTGAAAAGTTGTTATCACTTGTCGTAAGACACTTCGGATGGGTTGACGTTCTGCACGTAGAAGCAAAAGGC | 0.785 |
| GAGACCGCAACTGAAAAGTTGTTATCACTTGTCGTAAGACACTTCGGATGGGTTGAGGTTCTGCACGTAGAAGCAAAAGGC | 0.812 |
| GAGACCGCAACTGAAAAGTTGTTATCACTTGTCGTAAGACACTTCGGATGGGTTGATGTTCTGCACGTAGAAGCAAAAGGC | 0.777 |
| GAGACCGCAACTGAAAAGTTGTTATCACTTGTCGTAAGACACTTCAGATGGGTTGAAGTTCTGCACGTAGAAGCAAAAGGC | 0.127 |
| GAGACCGCAACTGAAAAGTTGTTATCACTTGTCGTAAGACACTTCCGATGGGTTGAAGTTCTGCACGTAGAAGCAAAAGGC | 0.268 |
| GAGACCGCAACTGAAAAGTTGTTATCACTTGTCGTAAGACACTTCTGATGGGTTGAAGTTCTGCACGTAGAAGCAAAAGGC | 0.263 |
| GAGACCGCAACTGAAAAGTTGTTATCACTTGTCGTAAGACACTTCGAATGGGTTGAAGTTCTGCACGTAGAAGCAAAAGGC | 0.366 |
| GAGACCGCAACTGAAAAGTTGTTATCACTTGTCGTAAGACACTTCGCATGGGTTGAAGTTCTGCACGTAGAAGCAAAAGGC | 0.31 |
| GAGACCGCAACTGAAAAGTTGTTATCACTTGTCGTAAGACACTTCGTATGGGTTGAAGTTCTGCACGTAGAAGCAAAAGGC | 0.379 |
| GAGACCGCAACTGAAAAGTTGTTATCACTTGTCGTAAGACACTTCGGATAGGTTGAAGTTCTGCACGTAGAAGCAAAAGGC | 0.0234 |
| GAGACCGCAACTGAAAAGTTGTTATCACTTGTCGTAAGACACTTCGGATCGGTTGAAGTTCTGCACGTAGAAGCAAAAGGC | 0.0165 |
| GAGACCGCAACTGAAAAGTTGTTATCACTTGTCGTAAGACACTTCGGATTGGTTGAAGTTCTGCACGTAGAAGCAAAAGGC | 0.0706 |
| GAGACCGCAACTGAAAAGTTGTTATCACTTGTCGTAAGACACTTCGGATGGGTTAAAGTTCTGCACGTAGAAGCAAAAGGC | 0.521 |
| GAGACCGCAACTGAAAAGTTGTTATCACTTGTCGTAAGACACTTCGGATGGGTTCAAGTTCTGCACGTAGAAGCAAAAGGC | 0.0438 |
